Reference: PMC5204125, “Primase is required for helicase activity and helicase alters the specificity of primase in the enteropathogen Clostridium difficile” (Open Biology, 2016)
One block for each molecule: values may come before it.

Experiments:
[1] = biological target: T1, CD3657 helicase with CD3654 helicase loader (Clostridioides difficile, UniProt Q181Q5+Q181Q8); assay: analytical gel filtration (Superdex […]) with SDS-PAGE; details: 1 mM ATP; 2.21 uM each protein (monomer); ATP site inferred by the authors to be on CD3657 (Walker A), ATP binding itself not measured
T1 construct: gene dnaC; full-length open reading frames, non-tagged, expressed in E. coli BL21(DE3) from pET vectors; CD3657 monomer 49 kDa, CD3654 38 kDa; most probably 6:6 dodecamer with ATP (522 kDa); with Helicase loader ATPase (DnaI-like AAA+ protein)
T1 sequence (Q181Q8 1-442): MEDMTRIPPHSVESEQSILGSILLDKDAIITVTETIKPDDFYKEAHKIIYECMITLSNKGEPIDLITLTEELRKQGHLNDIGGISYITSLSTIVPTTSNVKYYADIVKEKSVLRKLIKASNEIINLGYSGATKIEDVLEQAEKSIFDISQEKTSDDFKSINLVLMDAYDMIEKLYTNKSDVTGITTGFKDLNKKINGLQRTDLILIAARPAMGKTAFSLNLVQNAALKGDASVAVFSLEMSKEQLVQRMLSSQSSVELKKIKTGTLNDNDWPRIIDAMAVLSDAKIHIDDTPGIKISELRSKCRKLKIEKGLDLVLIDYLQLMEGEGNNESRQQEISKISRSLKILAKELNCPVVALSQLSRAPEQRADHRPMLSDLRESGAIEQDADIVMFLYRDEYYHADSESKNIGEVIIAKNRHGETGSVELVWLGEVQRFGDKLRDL
T1 sequence (Q181Q5 1-330): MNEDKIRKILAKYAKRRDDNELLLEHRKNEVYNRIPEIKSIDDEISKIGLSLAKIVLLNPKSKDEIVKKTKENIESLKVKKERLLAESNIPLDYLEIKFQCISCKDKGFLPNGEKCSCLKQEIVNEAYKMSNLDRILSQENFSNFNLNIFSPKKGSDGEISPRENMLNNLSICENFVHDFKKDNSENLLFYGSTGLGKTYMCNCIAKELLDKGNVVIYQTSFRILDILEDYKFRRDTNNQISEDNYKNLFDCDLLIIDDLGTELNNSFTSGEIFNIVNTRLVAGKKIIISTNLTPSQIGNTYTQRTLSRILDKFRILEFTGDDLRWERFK

[2] = biological target: C. difficile replicative helicase CD3657, purified non-tagged (Clostridium difficile)
[3] = biological target: C. difficile replicative helicase CD3657, purified non-tagged (Clostridium difficile); remark: listed apart in the source
[4] = biological target: C. difficile replicative helicase CD3657, purified non-tagged (Clostridium difficile); assay: SEC; analytical gel filtration of purified CD3657 alone, at 10 µM and above (monomer)
[5] = biological target: C. difficile putative helicase loader CD3654, purified non-tagged (Clostridium difficile); assay: SEC; analytical gel filtration, Superdex 200 10/300 GL, CD3657 and CD3654 equimolar 2.21 µM (monomer), with 1 mM ATP; fractions on SDS-PAGE
[6] = biological target: C. difficile replicative helicase CD3657, purified non-tagged (Clostridium difficile); assay: as above
[7] = biological target: C. difficile replicative helicase CD3657, purified non-tagged (Clostridium difficile); assay: SEC; analytical gel filtration of CD3657 and CD3654 at high concentrations (approx. 10 µM); Figure S3
[8] = biological target: C. difficile replicative helicase CD3657, purified non-tagged (Clostridium difficile); assay: SEC; analytical gel filtration, Superdex 200 10/300 GL, CD3657 and CD3654 equimolar 2.21 µM (monomer), without ATP; fractions on SDS-PAGE
[9] = biological target: CD3657 helicase, bacterial two-hybrid fusion (Clostridium difficile); assay: two-hybrid; bacterial two-hybrid: Zif fusion and RNA polymerase ω subunit fusion, Zif-dependent lacZ reporter in E. coli KDZif1ΔZ, β-galactosidase activity, n = 3
[10] = biological target: CD3654 putative helicase loader, bacterial two-hybrid fusion (Clostridium difficile); assay: as above

Molecule: Nc1ncnc2c1ncn2[C@@H]1O[C@H](COP(=O)(O)OP(=O)(O)OP(=O)(O)O)[C@@H](O)[C@H]1O [ATP]
analytical gel filtration (Superdex 200) with SDS-PAGE [1]: CD3657 helicase and the loader CD3654 can form a complex in an ATP-dependent manner

RNA primer production by CD1454 on the 5′-d(CTA) 23-mer ssDNA template with against without CD3657, at [CD3657]6:[CD1454]3 [2]: 45.9 nmol | helicase assay: displacement of a radiolabelled oligonucleotide annealed to ssM13 by CD3657 with equimolar CD1454 against CD3657 alone, time course to 35 min [3]: 3.5 fold
Molecule: C. difficile primase CD1454, purified without an affinity tag (enzyme)

stoichiometry N [4]: 6 | stoichiometry N (CD3657 per CD3654 (6:6)) [5]: 1 | stoichiometry N [6]: 6 | stoichiometry N [7]: 6 | stoichiometry N [8]: 6
Molecule: C. difficile replicative helicase CD3657, purified non-tagged (enzyme)

fold β-galactosidase activity over the reporter strains with the individual plasmids [9]: 3 fold | fold β-galactosidase activity over the reporter strains with the individual plasmids [10]: 5 fold
Molecule: CD3657 helicase, bacterial two-hybrid fusion (enzyme)
